Results as given in publication PMC4018254, “Bacterial Magnetosome Biomineralization - A Novel Platform to Study Molecular Mechanisms of Human CDF-Related Type-II Diabetes” (PLoS ONE, 2014).

Molecular target: the molecule itself
Assay: SEC; Superdex200; elution volumes of the mutants compared with wild-type MamM-CTD; self-association (dimer)

Protein | stoichiometry N
MamM-CTD (cytosolic C-terminal domain of the magnetosome CDF transporter MamM), wild type (domain or fragment, Magnetospirillum gryphiswaldense, MamM, cation diffusion facilitator of Magnetospirillum gryphiswaldense, cytosolic C-terminal domain (CTD); also called wild-type MamM-CTD; apo-MamM-CTD; source: recombinant, purified; expression and purification 'performed as previously described [20], [29], [30]') EAVQNRIVEAAERVPGVRGVIHLRARYVGQDIWADMIIGVDPENTVEQAHEICEAVQAAVCGKIRRIESLHVSAEAREIGDTTKPSFSDQPLSFDEVMLSKVDN | 2
MamM-CTD V260R mutant (domain or fragment, Magnetospirillum gryphiswaldense, MamM, cation diffusion facilitator of Magnetospirillum gryphiswaldense, cytosolic C-terminal domain (CTD) with V260R; The mutation mimics the R325 allele of human ZnT-8; source: recombinant, purified; expression, purification and site-directed mutagenesis 'performed as previously described [20], [29], [30]') EAVQNRIVEAAERVPGVRGVIHLRARYVGQDIWADMIIGVDPENTREQAHEICEAVQAAVCGKIRRIESLHVSAEAREIGDTTKPSFSDQPLSFDEVMLSKVDN | 2
MamM-CTD V260W mutant (domain or fragment, Magnetospirillum gryphiswaldense, MamM, cation diffusion facilitator of Magnetospirillum gryphiswaldense, cytosolic C-terminal domain (CTD) with V260W; The mutation mimics the W325 allele of human ZnT-8; source: recombinant, purified; expression, purification and site-directed mutagenesis 'performed as previously described [20], [29], [30]') EAVQNRIVEAAERVPGVRGVIHLRARYVGQDIWADMIIGVDPENTWEQAHEICEAVQAAVCGKIRRIESLHVSAEAREIGDTTKPSFSDQPLSFDEVMLSKVDN | 2
